Patent publication US20240092876A1 (priority 2020, published 2024)

How the values were obtained:
[1] = molecular target: N9
[2] = molecular target: N1

Substance	Kd [1]	Kd [2]	koff [1]	kon [1]	koff [2]	kon [2]
FNI9 (antibody)	< 1 pM	16.4 pM	–	–	–	–
1G01 (antibody)	< 1 pM	868 pM	< 1e-07 s⁻¹	106000 M⁻¹ s⁻¹	4.79e-05 s⁻¹	55100 M⁻¹ s⁻¹
FNI3 (antibody)	2.86 pM	< 1 pM	9.45e-07 s⁻¹	330000 M⁻¹ s⁻¹	< 1e-07 s⁻¹	39500 M⁻¹ s⁻¹
